Measurements taken from publication doi:10.1101/2021.06.17.448816 (bioRxiv, 2021).

What was measured:
Conditions in all cases: both partners purified
[1] = target: T1, Pol α catalytic subunit (334-1462), as in the truncated human primosome (human, UniProt P09884 334-1462); assay: […]) in 25 mM HEPES pH 7.2, 150 mM KCl, 1 mM DTT; […]
T1 construct: also called DNA polymerase α; catalytic subunit of Pol α
T1 sequence (looked up): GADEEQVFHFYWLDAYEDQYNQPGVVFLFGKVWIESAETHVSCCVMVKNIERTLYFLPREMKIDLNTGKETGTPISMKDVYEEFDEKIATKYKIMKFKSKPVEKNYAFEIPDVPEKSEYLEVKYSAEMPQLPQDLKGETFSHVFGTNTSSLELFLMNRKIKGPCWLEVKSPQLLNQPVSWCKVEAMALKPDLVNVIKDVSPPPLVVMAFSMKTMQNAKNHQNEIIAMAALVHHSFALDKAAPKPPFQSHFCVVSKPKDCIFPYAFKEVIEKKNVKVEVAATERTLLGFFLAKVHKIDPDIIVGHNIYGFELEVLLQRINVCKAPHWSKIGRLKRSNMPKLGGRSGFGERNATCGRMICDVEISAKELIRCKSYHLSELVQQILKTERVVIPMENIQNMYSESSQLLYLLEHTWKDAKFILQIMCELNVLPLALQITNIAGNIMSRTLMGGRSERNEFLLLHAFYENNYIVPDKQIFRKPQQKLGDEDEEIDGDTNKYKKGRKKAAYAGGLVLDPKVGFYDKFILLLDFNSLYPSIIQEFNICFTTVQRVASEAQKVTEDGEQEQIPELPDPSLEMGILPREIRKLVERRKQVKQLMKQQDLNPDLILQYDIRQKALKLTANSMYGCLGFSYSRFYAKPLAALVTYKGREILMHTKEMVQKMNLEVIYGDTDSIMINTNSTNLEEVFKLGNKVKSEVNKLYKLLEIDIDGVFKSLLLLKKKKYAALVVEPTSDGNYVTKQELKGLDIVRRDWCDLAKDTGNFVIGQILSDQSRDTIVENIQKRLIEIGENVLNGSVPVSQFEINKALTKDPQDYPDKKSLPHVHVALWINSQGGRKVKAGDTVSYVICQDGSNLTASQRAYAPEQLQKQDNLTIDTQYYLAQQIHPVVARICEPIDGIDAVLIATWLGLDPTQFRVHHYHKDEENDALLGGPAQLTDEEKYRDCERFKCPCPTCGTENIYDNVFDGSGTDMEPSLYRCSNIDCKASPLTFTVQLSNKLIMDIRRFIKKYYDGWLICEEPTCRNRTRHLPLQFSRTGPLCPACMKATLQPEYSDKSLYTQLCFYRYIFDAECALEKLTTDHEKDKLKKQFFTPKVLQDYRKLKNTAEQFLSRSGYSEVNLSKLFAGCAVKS

[2] = target: T2, Truncated human primosome (Pol α: 334-1462; B subunit: 149-598; PriS: 1-420; PriL: 1-509) (human, UniProt P09884 334-1462; Q14181 149-598; P49642 1-420; P49643 1-509); assay: as above
T2 construct: also called truncated primosome; Pol α - primase

[3] = target: T2, Truncated human primosome (Pol α: …); assay: pull-down
[4] = target: T3, Full-length human primosome (Pol α: 1-1462; B subunit: 1-598; PriS: 1-420; PriL: 1-509) (human, UniProt P09884 1-1462; Q14181 1-598; P49642 1-420; P49643 1-509); assay: pull-down
T3 construct: also called DNA polymerase α - primase complex; Pol α - primase
T3 sequence (Q14181 whole entry, chain 2 of 3): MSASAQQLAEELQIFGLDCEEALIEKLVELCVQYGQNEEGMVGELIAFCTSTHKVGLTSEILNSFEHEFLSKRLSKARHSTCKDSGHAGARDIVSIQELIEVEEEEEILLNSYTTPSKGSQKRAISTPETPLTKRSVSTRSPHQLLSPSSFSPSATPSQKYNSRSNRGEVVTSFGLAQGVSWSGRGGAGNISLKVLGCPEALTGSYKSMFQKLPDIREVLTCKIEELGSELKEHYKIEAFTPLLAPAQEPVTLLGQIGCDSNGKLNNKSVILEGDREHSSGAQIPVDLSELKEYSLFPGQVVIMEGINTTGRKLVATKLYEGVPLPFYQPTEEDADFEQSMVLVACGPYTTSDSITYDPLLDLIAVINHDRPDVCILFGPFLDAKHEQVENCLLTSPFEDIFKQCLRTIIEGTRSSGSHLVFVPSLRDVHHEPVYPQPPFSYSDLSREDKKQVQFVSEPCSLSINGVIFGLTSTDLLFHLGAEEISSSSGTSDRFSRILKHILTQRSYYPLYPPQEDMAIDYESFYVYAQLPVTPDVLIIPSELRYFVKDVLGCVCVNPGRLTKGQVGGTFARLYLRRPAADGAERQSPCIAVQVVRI
T3 sequence (P49642 whole entry, chain 3 of 3): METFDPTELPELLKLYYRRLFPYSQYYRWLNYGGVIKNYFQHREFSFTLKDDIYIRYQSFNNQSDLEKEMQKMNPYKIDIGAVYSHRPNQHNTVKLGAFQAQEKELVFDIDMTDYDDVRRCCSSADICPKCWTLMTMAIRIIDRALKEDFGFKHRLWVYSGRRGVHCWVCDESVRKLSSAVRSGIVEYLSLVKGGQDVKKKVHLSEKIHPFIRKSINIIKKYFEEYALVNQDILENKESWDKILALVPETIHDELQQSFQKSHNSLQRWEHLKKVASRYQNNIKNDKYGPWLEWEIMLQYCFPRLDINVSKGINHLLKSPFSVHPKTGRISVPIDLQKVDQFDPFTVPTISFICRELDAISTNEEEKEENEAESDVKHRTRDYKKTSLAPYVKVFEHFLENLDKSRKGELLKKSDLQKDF
T3 sequence (P49643 whole entry, chain 4 of 3): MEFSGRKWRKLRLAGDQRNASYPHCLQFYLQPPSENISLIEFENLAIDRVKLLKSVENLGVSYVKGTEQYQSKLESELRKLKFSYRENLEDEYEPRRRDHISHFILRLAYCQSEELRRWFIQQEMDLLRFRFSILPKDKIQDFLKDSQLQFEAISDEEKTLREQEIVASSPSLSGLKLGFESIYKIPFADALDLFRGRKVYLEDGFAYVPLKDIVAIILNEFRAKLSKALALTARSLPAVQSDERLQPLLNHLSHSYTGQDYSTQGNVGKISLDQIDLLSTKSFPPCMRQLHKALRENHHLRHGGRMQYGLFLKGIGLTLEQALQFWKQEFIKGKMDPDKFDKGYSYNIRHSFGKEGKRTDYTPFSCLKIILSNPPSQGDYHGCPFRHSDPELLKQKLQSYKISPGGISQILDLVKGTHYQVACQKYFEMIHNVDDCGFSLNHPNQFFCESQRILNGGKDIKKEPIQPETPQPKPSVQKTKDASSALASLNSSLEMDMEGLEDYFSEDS

T2 sequence (Q14181 149-598, chain 2 of 3): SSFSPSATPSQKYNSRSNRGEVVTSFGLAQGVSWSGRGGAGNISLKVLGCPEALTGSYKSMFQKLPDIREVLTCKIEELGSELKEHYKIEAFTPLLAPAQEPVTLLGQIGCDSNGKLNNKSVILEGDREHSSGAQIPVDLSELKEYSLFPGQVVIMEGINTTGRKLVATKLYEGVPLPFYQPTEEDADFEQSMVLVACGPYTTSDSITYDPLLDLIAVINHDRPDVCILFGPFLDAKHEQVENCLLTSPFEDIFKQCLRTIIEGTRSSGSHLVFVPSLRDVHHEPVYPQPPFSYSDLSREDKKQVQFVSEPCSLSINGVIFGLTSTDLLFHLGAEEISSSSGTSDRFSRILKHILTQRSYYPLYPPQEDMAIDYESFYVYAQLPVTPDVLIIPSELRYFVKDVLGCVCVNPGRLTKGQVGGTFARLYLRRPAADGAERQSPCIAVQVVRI
T2 sequence (P49642 whole entry, chain 3 of 3, the tested form may be a part): as the sequence (P49642 whole entry, chain 3 of 3) above
T2 sequence (P49643 whole entry, chain 4 of 3, the tested form may be a part): as the sequence (P49643 whole entry, chain 4 of 3) above

B1: SARS-CoV nsp1 (13-127), His6-MBP tag cleaved (domain or fragment)
chain: HVQLSLPVLQVRDVLVRGFGDSVEEALSEAREHLKNGTCGLVELEKGVLPQLEQPYVFIKRSDALSTNHGHKVVELVAEMDGIQYGRSGITLGVLVPHVGETPIAYRNVLLRKNG
Q: Does B1 bind [1]?
A: binds

Q: Does B1 bind [2]?
A: binds

B2: SARS-CoV nsp1 middle domain (13-127), His6-MBP fusion (domain or fragment)
chain: HVQLSLPVLQVRDVLVRGFGDSVEEALSEAREHLKNGTCGLVELEKGVLPQLEQPYVFIKRSDALSTNHGHKVVELVAEMDGIQYGRSGITLGVLVPHVGETPIAYRNVLLRKNG
Q: Does B2 bind [3]?
A: binds

B3: MBP-tagged SARS-CoV nsp1 (full-length, His6-MBP fusion) (natural protein)
chain: MESLVLGVNEKTHVQLSLPVLQVRDVLVRGFGDSVEEALSEAREHLKNGTCGLVELEKGVLPQLEQPYVFIKRSDALSTNHGHKVVELVAEMDGIQYGRSGITLGVLVPHVGETPIAYRNVLLRKNGNKGAGGHSYGIDLKSYDLGDELGTDPIEDYEQNWNTKHGSGALRELTRELNGG
Q: Does B3 bind [4]?
A: binds

Q: Does B3 bind [3]?
A: binds

B4: SARS-CoV-2 nsp1 middle domain (13-127), His6-MBP fusion (domain or fragment)
chain: HVQLSLPVLQVRDVLVRGFGDSVEEVLSEARQHLKDGTCGLVEVEKGVLPQLEQPYVFIKRSDARTAPHGHVMVELVAELEGIQYGRSGETLGVLVPHVGEIPVAYRKVLLRKNG
Q: Does B4 bind [3]?
A: binds
